The subject of data set [1] is HeLa Kyoto. The data set is described as follows: solubility in G1/S (NP-40 vs SDS abundance) (log2 ratio); higher = more soluble. Conditions: cell cycle stage: G1/S.
The test system of data set [2] is HeLa Kyoto. As to the kind of experiment: melting temperature (median over replicates), in situ; higher = more thermally stable.
The subject of data set [3] is HeLa Kyoto. The data set is described as follows: solubility change mitosis vs G1/S (difference of NP-40 vs SDS log2 ratios) (log2 ratio difference); higher = more soluble in mitosis.
The test system of data set [4] is HeLa Kyoto. The data set is described as follows: thermal stability score vs G1/S (z-score of summed log2 fold changes over temperatures); higher = more thermally stable than in G1/S.
[5] abbreviates: cell cycle stage: early G1 (4.5 h after nocodazole release).

Results on 5 sequences are retold here after the supplement of paper PMC5998384.
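Wherever melting temperature (median over replicates), in situ is given: HeLa Kyoto cells synchronized by double thymidine or nocodazole block, proteins quantified by TMT10plex mass spectrometry, three independent biological replicates.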
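Wherever solubility change mitosis vs G1/S (difference of NP-40 vs SDS log2 ratios) is given: synchronized HeLa Kyoto cells (double thymidine block for G1/S, nocodazole release for mitosis), protein amounts in NP-40 versus SDS lysates quantified by mass spectrometry, three biological replicates.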
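Wherever solubility in G1/S (NP-40 vs SDS abundance) is given: HeLa Kyoto cells arrested at G1/S by double thymidine block, proteins quantified by TMT10plex mass spectrometry in mild NP-40 versus SDS extracts, three biological replicates.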
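Wherever thermal stability score vs G1/S (z-score of summed log2 fold changes over temperatures) is given: synchronized HeLa Kyoto cells, proteins quantified by TMT10plex mass spectrometry, three biological replicates, mitosis taken 0.5 h after nocodazole release, G1/S directly after double thymidine block.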

Regarding “MMHFKSGLELTELQNMTVPEDDNISNDSNDFTEVENGQINSKFISDRESRRSLTNSHLEKKKCDEYIPGTTSLGMSVFNLSNAIMGSGILGLAFALANTGILLFLVLLTSVTLLSIYSINLLLICSKETGCMVYEKLGEQVFGTTGKFVIFGATSLQNTGAMLSYLFIVKNELPSAIKFLMGKEETFSAWYVDGRVLVVIVTFGIILPLCLLKNLGYLGYTSGFSLSCMVFFLIVVIYKKFQIPCIVPELNSTISANSTNADTCTPKYVTFNSKTVYALPTIAFAFVCHPSVLPIYSELKDRSQKKMQMVSNISFFAMFVMYFLTAIFGYLTFYDNVQSDLLHKYQSKDDILILTVRLAVIVAVILTVPVLFFTVRSSLFELAKKTKFNLCRHTVVTCILLVVINLLVIFIPSMKDIFGVVGVTSANMLIFILPSSLYLKITDQDGDKGTQRIWAALFLGLGVLFSLVSIPLVIYDWACSSSSDEGH [SLC38A1]”, the “solubility in G1/S (log2)” value with HeLa Kyoto [1] is -0.379. The melting temperature in the data set with HeLa Kyoto [2] (cell cycle stage: G1/S) is 57.8 °C; in the data set with HeLa Kyoto [2] (cell cycle stage: mitosis), 59.4 °C. Also, the “solubility change mitosis (log2)” value with HeLa Kyoto [3] was -0.24. For the same sequence, the thermal stability score was -1.68 in the data set with HeLa Kyoto [4] (setting [5]) and -3.89 in the data set on HeLa Kyoto [4] (cell cycle stage: mitosis).

Regarding “MMIHGFQSSHRDFCFGPWKLTASKTHIMKSADVEKLADELHMPSLPEMMFGDNVLRIQHGSGFGIEFNATDALRCVNNYQGMLKVACAEEWQESRTEGEHSKEVIKPYDWTYTTDYKGTLLGESLKLKVVPTTDHIDTEKLKAREQIKFFEEVLLFEDELHDHGVSSLSVKIRVMPSSFFLLLRFFLRIDGVLIRMNDTRLYHEADKTYMLREYTSRESKISSLMHVPPSLFTEPNEISQYLPIKEAVCEKLIFPERIDPNPADSQKSTQVE [TIPRL]”, in the data set with HeLa Kyoto [1], the “solubility in G1/S (log2)” value was 0.0228. Moreover, the figures for the melting temperature with HeLa Kyoto [2] (cell cycle stage: G1/S) and in the data set with HeLa Kyoto [2] (cell cycle stage: mitosis) were 50.8 °C and 51.3 °C, respectively. The “solubility change mitosis (log2)” value in the data set with HeLa Kyoto [3] is -0.0696. Besides, the thermal stability score in the data set on HeLa Kyoto [4] (setting [5]) is -0.544; in the data set with HeLa Kyoto [4] (cell cycle stage: mitosis), -1.01.

With “MMKFRFRRQGADPQREKLKQELFAFNKTVEHGFPNQPSALAFDPELRIMAIGTRSGAVKIYGAPGVEFTGLHRDAATVTQMHFLTGQGRLLSLLDDSSLHLWEIVHHNGCAHLEEALSFQLPSRPGFDGASAPLSLTRVTVVLLVAASDIAALGTEGSSVFFLDVTTLTLLEGQTLAPGEVLRSVPDDYRCGKALGPVESLQGHLRDPTKILIGYSRGLLVIWNQASQCVDHIFLGNQQLESLCWGRDSSTVVSSHSDGSYAVWSVDAGSFPTLQPTVATTPYGPFPCKAINKILWRNCESGGHFIIFSGGMPRASYGDRHCVSVLRAETLVTLDFTSRIIDFFTVHSTRPEDEFDDPQALAVLLEEELVVLDLQTPGWPAVPAPYLAPLHSSAITCSAHVASVPAKLWARIVSAGEQQSPQPVSSALSWPITGGRNLAQEPSQRGLLLTGHEDGTVRFWDASGVALRPLYKLSTAGLFQTDCEHADSLAQAAEDDWPPFRKVGCFDPYSDDPRLGVQKVALCKYTAQMVVAGTAGQVLVLELSDVPVEQAVSVAIIDLLQDREGFTWKGHERLSPRTGPLPWPAGFQPRVLVQCLPPAAVTAVTLHTEWSLVAFGTSHGFGLFDYQRKSPVLARCTLHPNDSLAMEGPLSRVKSLKKSLRQSFRRIRKSRVSGKKRAANASSKLQEANAQLAEQACPHDVEMTPVQRRIEPRSADDSLSGVVRCLYFADTFLRDGAHHGPTMWAGTNSGSVFAYALEVPAAAVGGEKRPEQAVEAVLGKEVQLMHRAPVVAIAVLDGRGRPLPEPYEASRDLAQAPDMQGGHAVLIASEEQFKVFTLPKVSAKTKFKLTAHEGCRVRKVALATFASVACEDYAETCLACLTNLGDVHVFSVPGLRPQVHYSCIRKEDISGIASCVFTRHGQGFYLISPSEFERFSLSARNITEPLCSLDINWPRDATQASYRIRESPKLSQANGTPSILLAPQSLDGSPDPAHSMGPDTPEPPEAALSPMSIDSATSADTTLDTTGDVTVEDVKDFLGSSEESEKNLRNLAEDEAHACAILIK [LLGL1]”, in the data set with HeLa Kyoto [1], the “solubility in G1/S (log2)” value amounted to 0.0124. For the same sequence, the results for the melting temperature with HeLa Kyoto [2] (cell cycle stage: G1/S) and in the data set with HeLa Kyoto [2] (cell cycle stage: mitosis) were 50.9 °C and 49.7 °C, respectively. Besides, in the data set with HeLa Kyoto [3], the “solubility change mitosis (log2)” value is -0.209. In addition, the results for the thermal stability score in the data set on HeLa Kyoto [4] (setting [5]) and in the data set with HeLa Kyoto [4] (cell cycle stage: mitosis) were -0.436 and -0.753, respectively.

With “MMLGPEGGEGFVVKLRGLPWSCSVEDVQNFLSDCTIHDGAAGVHFIYTREGRQSGEAFVELGSEDDVKMALKKDRESMGHRYIEVFKSHRTEMDWVLKHSGPNSADSANDGFVRLRGLPFGCTKEEIVQFFSGLEIVPNGITLPVDPEGKITGEAFVQFASQELAEKALGKHKERIGHRYIEVFKSSQEEVRSYSDPPLKFMSVQRPGPYDRPGTARRYIGIVKQAGLERMRPGAYSTGYGGYEEYSGLSDGYGFTTDLFGRDLSYCLSGMYDHRYGDSEFTVQSTTGHCVHMRGLPYKATENDIYNFFSPLNPVRVHIEIGPDGRVTGEADVEFATHEEAVAAMSKDRANMQHRYIELFLNSTTGASNGAYSSQVMQGMGVSAAQATYSGLESQSVSGCYGAGYSGQNSMGGYD [HNRNPF]”, the “solubility in G1/S (log2)” value in the data set on HeLa Kyoto [1] is -0.0868. In addition, the melting temperature in the data set on HeLa Kyoto [2] (cell cycle stage: G1/S) came out at 48 °C; in the data set on HeLa Kyoto [2] (cell cycle stage: mitosis), 49 °C. The “solubility change mitosis (log2)” value in the data set on HeLa Kyoto [3] is -0.0538. The thermal stability score with HeLa Kyoto [4] (setting [5]) is 3.58; with HeLa Kyoto [4] (cell cycle stage: mitosis) it was 9.17.

Turning to “MMLSTEGREGFVVKVRGLPWSCSADEVMRFFSDCKIQNGTSGIRFIYTREGRPSGEAFVELESEEEVKLALKKDRETMGHRYVEVFKSNSVEMDWVLKHTGPNSPDTANDGFVRLRGLPFGCSKEEIVQFFSGLEIVPNGMTLPVDFQGRSTGEAFVQFASQEIAEKALKKHKERIGHRYIEIFKSSRAEVRTHYDPPRKLMAMQRPGPYDRPGAGRGYNSIGRGAGFERMRRGAYGGGYGGYDDYGGYNDGYGFGSDRFGRDLNYCFSGMSDHRYGDGGSSFQSTTGHCVHMRGLPYRATENDIYNFFSPLNPMRVHIEIGPDGRVTGEADVEFATHEDAVAAMAKDKANMQHRYVELFLNSTAGTSGGAYDHSYVELFLNSTAGASGGAYGSQMMGGMGLSNQSSYGGPASQQLSGGYGGGYGGQSSMSGYDQVLQENSSDYQSNLA [HNRNPH2]”, the “solubility in G1/S (log2)” value in the data set with HeLa Kyoto [1] was -0.272. The melting temperature with HeLa Kyoto [2] (cell cycle stage: G1/S) stood at 45 °C; with HeLa Kyoto [2] (cell cycle stage: mitosis) it was 45.2 °C. Also, in the data set with HeLa Kyoto [3], the “solubility change mitosis (log2)” value is -0.0078. In addition, the thermal stability score in the data set on HeLa Kyoto [4] (setting [5]) was determined as 1.83; in the data set on HeLa Kyoto [4] (cell cycle stage: mitosis), 2.38.
